To fix the notation:
B1: mAb10982 (antibody, V domains shown)
VH: EVQLVESGGGLVQPGGSLRLSCAASGLTVSSNYMSWVRQAPGKGLEWVSVIYSGGTTYYADSVKGRFTISRHNSKNTLSLQMNSLRAEDTAVYYCARGEGANYYGMDVWGQGTTVTVSS
VL: QSVLTQPPSVSGAPGQRVTISCTGSSSNIGTGYDVHWYQQLPGTAPKLLIYGNSNRPSGVPDRFSGSKSGTSASLAITGLQAEDEADYYCQSYDSSLSGYVVFGGGTKLTVLG
B2: mAb10985 (antibody, V domains shown)
VH: EVQLVESGGGLVQPGRSLRLSCAASGFTFDDYAMHWVRQAPGKGLEWVSGISWNRGSIGYADSVKGRFTISRDNAKNSLYLQMSSLRAEDTALYYCAKDGERWDSVVVPSARNGMDVWGQGTTVTVSS
VL: B1 VL with T31A, Y100S, V101Y, G105T, L109V
B3: mAb10986 (antibody, V domains shown)
VH: EVQLVESGGGLVQPGGSLRLSCAASEFTVSSNYMSWVRQAPGKGLEWVSVIYSGGSTFYADSVKGRFTISRDNSKNTLYLQMNSLRAEDTAVYYCARALPYGDLHFDYWGQGTLVTVSS
VL: B1 VL with S54T, G99D, Y100S, V101Y, G105T, L109V
B4: mAb10923 (antibody, V domains shown)
VH: QVQLVQSGAEVKKPGASVKVSCKASGYTFINYYIHWVRQAPGQGLEWMGWINPNSGGTNYAQKFQGRVTMTRDTSISTAYMELSRLRSDDTAVYYCAIITIFGVVTWFDPWGQGTLVTVSS
VL: not shown
B5: mAb10921 (antibody, V domains shown)
VH: EVQLVESGGGLVQPGGSLRLSCAASGITVSSNYMSWVRQAPGKGLEWVSVIYSGGSTFYADSVKGRFTISRHNSKNTLYLQMNSLRAEDTAVYYCARERNFDAFDIWGQGTMVTVSS
VL: DIQMTQSPSSVSASVGDRVTITCRASQGISSWLAWYQQKPGKAPKLLIYAASSLQSGVPSRFSGSGSGTDFTLTISSLQPEDFATYYCQQANSFPLFTFGPGTKVDIKR
B6: mAb10920 (antibody, V domains shown)
VH: QVQLVESGGGVVQPGRSLRLSCAASGFTFSYYGMHWVRQAPGKGLEWVAVIWYDGSNKFYADSVKGRFTISRDNSKNTLYLQMNSLRAEDTAVYYCAAARPGYYYGMDVWGQGTTVTVSS
VL: DIQMTQSPSSLSASVGDRVTITCRASQGISNYLAWFQQKPGKAPNSLIYAASSLQRGVPSKFSGSGSGTDFTLTISSLQPEDFATYYCQQYNSYPRTFGQGTKVEIKR
B7: mAb10939 (antibody, V domains shown)
VH: EVQLVESGGGLVQPGGSLRLSCAASGLTVSSNYMNWVRQVPGKGLEWVSVIYSGGSKFYVDSVKGRFTISRHNSKNTLYLQMNSLRPEDTAVYYCTRDAQYYGMDVWGQGTTVTVSS
VL: DIQMTQSPSSLSASVGDRVTITCRASQSISTYLHWYQQKPGEAPKLLIYAASSLQSGVPSRFSGSGSGTDFTLTISSLQPEDFATYYCQQSYSTPPEIFGQGTKLEIKR
B8: mAb10936 (antibody, V domains shown)
VH: QVQLVESGGGVVQPGRSLRLSCAASGFTFRNYGMHWVRQAPGKGLEWVSVIWYDGSNRYYADSVKGRFTISRDTSKNTLYLQMNSLRAEDTAVYYCARDPPITGTTGGDAFDIWGQGTMVTVSS
VL: not shown
B9: mAb10934 (antibody, V domains shown)
VH: not shown
VL: DIQMTQSPSSLSASVGDRVTITCQASQDIWNYINWYQQKPGKAPKLLIYDASNLKTGVPSRFSGSGSGTDFTFTISSLQPEDIATYYCQQHDDLPPTFGQGTKVEIKR
B10: mAb10938 (antibody, V domains shown)
VH: EVQLVESGGGLVQPGGSLRLSCAVSGFTVSSNYMSWVRQAPGKGLEWVSLIYSGGSTFYADSVKGRFTISRHNSKNTLYLQMNSLRAEDTAVYYCAREGGYSYDYNYWGQGTLVTVSS
VL: B9 VL with W30R, I33L, K55E, S65I, H91Y, D93N, P96I, K103R, V104L
B11: mAb10935 (antibody, V domains shown)
VH: EVQLVESGGGLVQPGGSLRLSCAASGFTVSSNYMSWVRQAPGKGLEWVSLIYSGGSTYYADSVKGRFTISRHNSKNTLYLQMNSLRSEDTAVYYCARVPLGDYYYGMDVWGQGTTVTVSS
VL: B9 VL with W30N, N31K, I33L, K55E, H91S, D93N, P96L, Q100G
B12: mAb10932 (antibody, V domains shown)
VH: EVQLVESGGGLVQSGGSLRLSCAASGLTVSSNYMSWVRQAPGKGLEWVSVIYSGGSTFYSDSVKGRFTISRHNSKNTLYLQMNSLRAEDTAVYYCARARGDAFDIWGQGTMVTVSS
VL: not shown
B13: mAb10937 (antibody, V domains shown)
VH: QITLKESGPTLVKPTQTLTLTCTFSGFSLSTNVVGVGWIRQPPGKALEWLALIYWNDDKRYSPSLKSRLTITKDTSKNQVVLTMTNMDPVDTATYYCAHGPTGDYFDYWGQGTLVTVSS
VL: not shown
B14: mAb10984 (antibody, V domains shown)
VH: EVQLVESGGGLVQPGGSLRLSCAASGLTVNRNYMSWVRQAPGKGLEWVSLIYSGGSTYYADSVKGRFTISRDNSKNTLYLQMNSLRLEDTAVYYCARGELGIPYGMDVWGQGTTVTVSS
VL: QSVLTQPPSVSAAPGQKVTISCSGSSSNIGNNYVSWYQQLPGTAPKLLIYDNNKRPSGIPDRFSGSKSGTSATLGITGLQTGDEADYYCGTWDSSLSAGVFGGGTKLTVLG
B15: mAb10930 (antibody, V domains shown)
VH: EVQLVESGGGLVQPGRSLRLSCAASGFTFDDYAMYWVRQAPGKGLEWVSGISWNSGSIGYADSVKGRFTISRDNAKNSLYLQMNSLRAADTALYYCAKDKDWNSRGYYYYGMDVWGQGTTVTVSS
VL: not shown
B16: mAb10957 (antibody, V domains shown)
VH: EVQLVESGGGLVQPGGSLRLSCAASGVTVSSNYMSWVRQAPGKGLEWVSVIYSGGSTFYADSVKGRFTISRDNSKNTLFLQMNSLRIEDTAVYYCARDLGPYGMDVWGQGTTVTVSS
VL: B5 VL with M4L, S10F, V11L, W32Y, S53T, D70Q, T72I, A91L, F94Y, L96G
B17: mAb10956 (antibody, V domains shown)
VH: B16 VH with V27L, F79Y, I87A, G100I, P101K
VL: not shown
B18: mAb10955 (antibody, V domains shown)
VH: EVQLVESGGGLVQPGGSLRVSCAASGFTVSRNYMSWVRQAPGKGLEWVSVIYSGGSTFYADSVKGRFTISRDNSKNTLYLQMNSLRAEDTAIYYCARYIPRFDPWGQGTLVTVSS
VL: B9 VL with W30S, I33L, Y36F, K42R, K55E, H91Y, D93N, P96I, K103R, V104L

Substitutions are numbered along the chain they refer to.

By Kd is commonly meant the equilibrium constant for the complex coming apart.

The first experiment deals with SARS-COV-2 RBD-mFc (SARS-CoV-2). Description: Luminex beads.
B1: the binding result is reported as “binds”.

B2: the binding result was “binds”.

With B3, the binding result was “binds”.

With B4, the binding result is on record as “binds”.

For B5, the binding result is listed as “binds”.

On to B6, for which the binding result was “binds”.

For the molecule B7, the binding result was “binds”.

B8: the binding result is given as “binds”.

With B9, the binding result is “binds”.

Take B10: the binding result is “binds”.

In the case of B11, the binding result is recorded as “binds”.

In the case of B12, the binding result is “binds”.

Consider B13, for which the binding result is “binds”.

Take B14: the binding result is given as “binds”.

As to B15, the binding result is on record as “binds”.

Another experiment addresses SARS-CoV-2 RBD extracellular domain expressed with a C-terminal mouse IgG2a (SARS-COV-2 RBD-mFc) (SARS-CoV-2).
Experiment: not given
As to B16, the dissociation constant (Kd) was at most 0.0279 nM and the t1/2 is at least 19.2 h.

For B17, the equilibrium dissociation constant (Kd) amounted to 0.395 nM and the t1/2 is 1.3 h.

As for B18, the dissociation constant (Kd) came out at 0.0592 nM and the t1/2 was 8.23 h.

These data come from patent publication US20240043504A1 (published 2024).
